Biological target: anti-Fel d1 mAB 6F9
Assay: sandwich ELISA: mAB 6F9 coated, Fel d1 protein in doubling dilutions 80-0.16 ng/ml, detected with biotinylated mAB 3E4; Fel d1 (ng/ml) at OD50%

EC50: 7.2 ng/mL
Substance: natural Fel d1 (from UniProt P30440 18-109)
